IntAct's records for PubMed 10887186

Target: nrl_human NRL (UniProt P54845)
Sequence (P54845 whole entry): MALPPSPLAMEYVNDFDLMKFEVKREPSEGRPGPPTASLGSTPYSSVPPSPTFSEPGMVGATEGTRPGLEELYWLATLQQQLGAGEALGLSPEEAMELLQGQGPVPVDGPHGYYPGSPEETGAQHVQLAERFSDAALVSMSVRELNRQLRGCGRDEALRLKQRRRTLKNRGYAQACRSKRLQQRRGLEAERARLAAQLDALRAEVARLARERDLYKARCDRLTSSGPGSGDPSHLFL

Chain of Cone-rod homeobox protein (Bos taurus (Bovine)), Q9XSK0 R41W (Q9XSK0 whole entry R41W): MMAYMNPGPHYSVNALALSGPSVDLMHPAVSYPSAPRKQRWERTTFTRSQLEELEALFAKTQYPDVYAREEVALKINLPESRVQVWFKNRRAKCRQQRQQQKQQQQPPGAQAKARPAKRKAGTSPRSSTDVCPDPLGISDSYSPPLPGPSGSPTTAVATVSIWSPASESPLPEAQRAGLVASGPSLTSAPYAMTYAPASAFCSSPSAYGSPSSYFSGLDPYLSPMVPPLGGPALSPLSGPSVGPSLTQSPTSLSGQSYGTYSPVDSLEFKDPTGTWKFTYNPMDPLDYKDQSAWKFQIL
Chain of Cone-rod homeobox protein (Bos taurus (Bovine)), Q9XSK0 R90W (Q9XSK0 whole entry R90W): as the sequence (Q9XSK0 whole entry R41W) above, with W41R, R90W counted along it

effect of a mutation on the interaction	Substance
decreasing interaction	Cone-rod homeobox protein (Bos taurus (Bovine)), Q9XSK0 R41W
decreasing interaction	Cone-rod homeobox protein (Bos taurus (Bovine)), Q9XSK0 R90W
